Measurements published in US20160340704A1, “METHOD OF MAKING A BENZYLISOQUINOLINE ALKALOID (BIA) METABOLITE, ENZYMES THEREFORE” (VALORBEC SOCIÉTÉ EN COMMANDITE, priority 2014, published 2016).

Legend:
[1] = test system: acetylcholinesterase; conditions: cited from earlier work
[2] = test system: scoulerine; experiment: CYP719s in GC1316 (integrated PsCPR and PsCFS) supplemented with scoulerine; type: cell-based, Saccharomyces cerevisiae
Text: (§1) Plasmids harboring CYP719s were transformed into either GC1333 containing an integrated PsCPR (FIG. 10A) or GC1316 containing an integrated PsCPR and an integrated PsCFS (FIG. 10B). Strain GC1333, harboring PsCPR integrated into the chromosome, was transformed with pBOT plasmids, with GFP removed, harboring individual CYP719s (CYP719 EX41-105). (See Tables 7-8 below presenting the nature and activity of these CYP719s).
Plasmids harboring individual CYP719s were transformed into strain GC1316, which harbored PsCPR and PsCFS integrated into the genome. Strains were supplemented with scoulerine and after 16 hours total BIAs were extracted and the molar ratio was compared (FIG. 10B). The four possible BIAs that could be extracted were scoulerine, the single Ring A product nandinine, the single Ring B product cheilanthifoline, and the double Ring A, Ring B product stylopine.

[3] = test system: nandinine; experiment: CYP719 Ring B closure of nandinine to stylopine in GC1333; type: cell-based, Saccharomyces cerevisiae; conditions: nandinine generated in vivo from scoulerine, in TE
Experimental: FIG. 11A-B: showing conversion of (S)-cheilanthifoline (FIG. 11A) or (S)-nandinine (FIG. 11B) to (S)-stylopine by purchased CYP719s. Plasmids harboring CYP719s were transformed into GC1333 containing an integrated PsCPR. Strains were incubated with the appropriate BIA overnight, and then total BIAs were extracted and total molar ratios were compared. PsSPSΔN was used as a control.
The 10 CYP719s with 95% activity on Ring A of scoulerine and the 10 CYP719s with activity on Ring B of scoulerine were tested for activity on cheilanthifoline and nandinine, respectively, in order to generate a branched stylopine synthesis pathway. […] CYP719s PsCFS and EX101, capable of converting >98% of scoulerine to cheilanthifoline and nandinine, respectively, were incubated with scoulerine. After 16 h, cells were pelleted and the supernatant fraction was collected. The supernatant was then applied to fresh yeast strains in order to supplement them with either TE containing nandinine or cheilanthifoline as necessary.

[4] = Microsomal cytochrome P450 enzyme assay of PsCFS and PsSPSΔN incubated with (S)-scoulerine; type: biochemical, Papaver somniferum; conditions: microsomes with PsCPR; 125 μM (S)-scoulerine, 500 μM NADPH
Experimental: The pESC-CPR vector encoding opium poppy cytochrome P450 reductase (PsCPR) fused to a c-Myc tag was used for the heterologous expression of plant proteins in S. cerevisiae^25. The amplicon was inserted into NotI and SpeI restriction sites of pESC-CPR in-frame with a FLAG-tag sequence yielding pESC-CPR/CFS. […]
Analysis of enzyme assays was performed using an Agilent™ 1200 liquid chromatography system equipped with a 6410 triple-quadrupole mass spectrometer (Agilent Technologies; Santa Clara, Calif.). […] Scoulerine, cheilanthifoline, and stylopine were detected in multiple reaction monitoring (MRM) mode using a collision energy of 25 eV and monitored transitions of m/z 328→178, 326→178 and 324→176, respectively.
Constructs for the heterologous expression of PsCFS and PsSPS in S. cerevisiae were assembled in a vector harbouring PsCPR (Table 1 above). […] No conversion of scoulerine was detected in the negative control. […]

[5] = test system: (S)-scoulerine; experiment: TNMT N-methylation test: GCY1101 versus GCY1127 fed (S)-scoulerine; type: cell-based, Saccharomyces cerevisiae
Experimental: When cells of the Block 2-Block 3 double integrant were incubated with (S)-scoulerine, compounds with exact masses of 342.1710 m/z and 340.1548 m/z were detected in addition to expected sanguinarine pathway intermediates. These exact masses, and their CIDs, correspond to N-methylscoulerine and N-methylcheilanthifoline, respectively^36. […] To determine whether TNMT was responsible for the N-methylation of cheilanthifoline and scoulerine, the Block 2 integrant strain harbouring CPR on a plasmid (strain GCY1101) was compared with the Block 2 integrant strain harbouring both CPR and TNMT on a plasmid (strain GCY1127).
Because the applicants lacked standards to quantify the N-methylated products and since the three compounds are similar in structure, they assumed equal ionization efficiency and estimated their relative proportions by peak area: when strain GCY1127 is fed (S)-scoulerine, the expected product N-methylstylopine is 33%, while N-methylscoulerine is 7% and N-methylcheilanthifoline is 60% (FIG. 8B).

[6] = test system: scoulerine; experiment: CYP719 substrate affinity test on scoulerine in GC1333 (integrated PsCPR): Ring A / Ring B closure; type: cell-based, Saccharomyces cerevisiae; conditions: single CYP719 with PsCPR, 16 hours
Experimental: To broadly identify CYP719 activities on BIAs, a substrate affinity test was performed with the protoberberine BIA scoulerine. CYP719s have been described to form methylenedioxy bridges on BIAs from an alcohol group and a methyl group on adjacent carbons. Two different rings can be made on scoulerine, which can be called “Ring A” and “Ring B”, with the BIA products being called “nandinine” and “cheilanthifoline”, respectively (see FIG. 19). CYP719-catalyzed formation of both Ring A and Ring B of scoulerine (“Ring A-closing activity” and “Ring B-closing activity”) has been identified and published. Certain CYP719 enzymes included in the affinity tests have published ring A and Ring B activities.
as §1
The resulting CYP719-harboring strains (strains SF41-105) were supplemented with scoulerine. After 16 hours, BIAs were extracted and the molar ratio of scoulerine to downstream BIAs was calculated (FIG. 10A).

For `COc1cc2c(cc1O)[C@@H]1Cc3ccc(OC)c(O)c3C[N@+]1(C)CC2` [N-methylscoulerine], the described activity [1] is listed as “acetylcholinesterase inhibitor”.

B1: EX84: Papaver somniferum cheilanthifoline synthase, ADB89213.1, SEQ ID NO: 363 (protein, listed as Papaver somniferum)
chain: MEVTFWLITCGVVVAFALAKLLFGKKSSMSTMEWPSGPKTLPIIGNLHQLGGEAFHVCLANLAKVYGGVFTIWVGSWRPFIVISDVDKAWEVLVNKSSDYSARDMPDITKIISANWKNISHGDSGPFWHNLRKGLQGVALTPFNVASQYHLQERDMQNLIKSMKKKASQKNGILKPLDYVKEETVRLLSRLIFSQEFVDEDFVVGMHQALDELVSISGYASLADAFKFCENLPSHKKTIRAVHAIKIRFDNLIRPHIVSNPPTNTYLHFLLSQDFSEDVIISAILEVYDLGVDSTASTTVWALTFLVREQKIQEKLYREINNVTGGKRPVKVEDLNKLPYLQAVMKETMRMKPIAPMAIPHKASKDTSLMGKKINKGTVVMVNLYAIHHNPAVFPEPYKFMPERFLKDANSDGSLGDIKKMESSLLAFSAGMRICAGMELGKLQLAFGLASLVNEFKWDCVAEGKLPDLSEEHCFILLMKNPLEAKITPRIH
In the case of B1, the “conversion of scoulerine to cheilanthifoline” value ([2]; PsCFS alone in GC1316) is reported as 100%, the activity on nandinine ([2]; inferred from residual nandinine in GC1316 strains) is reported as “little to no activity on nandinine” and the “conversion of nandinine to stylopine” value [3] is reported as 12%. The “conversion of (S)-scoulerine by microsomal proteins (LC-MS products)” value [4] was “converted to cheilanthifoline”.

B2: TNMT: Papaver somniferum tetrahydroprotoberberine cis-N-methyltransferase, SEQ ID NO: 58 (protein, listed as Papaver somniferum)
chain: MGSIDEVKKESAGETLGRLLKGEIKDEELKKLIKFQFEKRLQWGYKSSHQEQLSFNLDFIKSLKKMEMSGEIETMNKETYELPSEFLEAVFGKTVKQSMCYFTHESATIDEAEEAAHELYCERAQIKDGQTVLDIGCGQGGLVLYIAQKYKNCHVTGLTNSKAQVNYLLKQAEKLGLTNVDAILADVTQYESDKTYDRLLMIEAIEHMKNLQLFMKKLSTWMTKESLLFVDHVCHKTFAHFFEAVDEDDWYSGFIFPPGCATILAANSLLYFQDDVSVVDHWVVNGMHMARSVDIWRKALDKNMEAAKEILLPGLGGSHETVNGVVTHIRTFCMGGYEQFSMNNGDEWMVAQLLFKKK
For B2, the “substrate acceptance for N-methylation” value [5] was “accepts both scoulerine and cheilanthifoline as substrates”.

B3: EX46: CYP719 from Corydalis cheilanthifolia, SEQ ID NO: 325 (protein, listed as Corydalis cheilanthifolia)
chain: MVNAVAEILTEKPWLLPATLLAVIAIAKFFLGKSSTMKWPIGPKTLPIIGNMHQLGGTDLQVVLANLAKTYGTIMTIWVGSWRPMIVLSDIEKAWEVLVNKSSDYSGRAMPEITEIISAKGKTISTSDSGPHWSNLRKGLQNVALSPHNIAAQSRFQESDITKMIKTLKQEAASNNGIVQPLDHLKKSTVRLISRLIFGQDFDDDEYVEAMHLAVEELIRVSGYARLAEAFYYAKYLPSHKRAVSEVWEANRRVKRIVKPRLSANPPPNCYLHFLSSQDYSEEMIIFAIFEAYLLGVDSTSSTTAWALGFLIREPKVQERLYQELKNCAGENGLIKVEDINKLPYLQAVLKETMRMKPIAPLAIPHKAVRETSLAGNKVEPGTRVMVNLYAIHHNPKVWIDPHKFKPERFLQGEENGGGNLKLMEQSLLPFSAGMRTCAGMELGKLQFGFSLANLVNAFQWDCAKKGMFPDMSDLLGFVLLMKTPLQAKIVPRGSPSINGY
For B3, the “conversion of scoulerine to the Ring A product nandinine (Ring A closure)” value [6] was 66%.

B4: EX61: CYP719 from Eschscholzia californica, Q50LH3.1, SEQ ID NO: 340 (protein, listed as Eschscholzia californica)
chain: MEEMKILMMNNPWILTATATTLLISIFLFFTRKSSKMVWPAGPKTLPIIGNMHLLGGTALQVVLHNLAKVHGSVMTIWIGSWRPVIVVSDIERAWEVLVNKSSDYSARDMPDITKIISADWKTISTSDSGPHWTNLRKGLQNVALSPHNLAAQFQFQEKDMTKMIQTLQEEARNNNGIVKPLDHMKKATLRLISRLVFGQDFNNDKYVDDMHLAIEELIRVSGYARLAEAFYYAKYLPSHKKAVREVEEAQRRVQNLVSPFLSLNPPTNTYLHFLRSQKYDDEVIIFAIFEAYLLGVDSTSLTTAWALAFLIRESNVQEKLYQELESFASKMDRKILKVEDINKLQYLQAVIKETMRMKPIAPLAIPHKACRDTSLMGKKIDKGTRVMVNIYALHHNKNVFNDPFKFMPERFMKVDSQDANGKAMEQSLLPFSAGMRICAGMELGKLQFSFALANLAYAFKWSCVADGVLPDMSDQLGFVLLMKTPLEARINRRN
For B4, the “conversion of scoulerine to the Ring A product nandinine (Ring A closure)” value [6] was 90%.
